This note sets out measurements from publication PMC5856089.

The target in test [1] is T1, C-luc Apaf-1 (full length Apaf-1 fused through its N-terminus to the C-terminal fragment, amino acids 395-550, of P. pyralis luciferase, with C-terminal His-tag), O14727.
T1 chain: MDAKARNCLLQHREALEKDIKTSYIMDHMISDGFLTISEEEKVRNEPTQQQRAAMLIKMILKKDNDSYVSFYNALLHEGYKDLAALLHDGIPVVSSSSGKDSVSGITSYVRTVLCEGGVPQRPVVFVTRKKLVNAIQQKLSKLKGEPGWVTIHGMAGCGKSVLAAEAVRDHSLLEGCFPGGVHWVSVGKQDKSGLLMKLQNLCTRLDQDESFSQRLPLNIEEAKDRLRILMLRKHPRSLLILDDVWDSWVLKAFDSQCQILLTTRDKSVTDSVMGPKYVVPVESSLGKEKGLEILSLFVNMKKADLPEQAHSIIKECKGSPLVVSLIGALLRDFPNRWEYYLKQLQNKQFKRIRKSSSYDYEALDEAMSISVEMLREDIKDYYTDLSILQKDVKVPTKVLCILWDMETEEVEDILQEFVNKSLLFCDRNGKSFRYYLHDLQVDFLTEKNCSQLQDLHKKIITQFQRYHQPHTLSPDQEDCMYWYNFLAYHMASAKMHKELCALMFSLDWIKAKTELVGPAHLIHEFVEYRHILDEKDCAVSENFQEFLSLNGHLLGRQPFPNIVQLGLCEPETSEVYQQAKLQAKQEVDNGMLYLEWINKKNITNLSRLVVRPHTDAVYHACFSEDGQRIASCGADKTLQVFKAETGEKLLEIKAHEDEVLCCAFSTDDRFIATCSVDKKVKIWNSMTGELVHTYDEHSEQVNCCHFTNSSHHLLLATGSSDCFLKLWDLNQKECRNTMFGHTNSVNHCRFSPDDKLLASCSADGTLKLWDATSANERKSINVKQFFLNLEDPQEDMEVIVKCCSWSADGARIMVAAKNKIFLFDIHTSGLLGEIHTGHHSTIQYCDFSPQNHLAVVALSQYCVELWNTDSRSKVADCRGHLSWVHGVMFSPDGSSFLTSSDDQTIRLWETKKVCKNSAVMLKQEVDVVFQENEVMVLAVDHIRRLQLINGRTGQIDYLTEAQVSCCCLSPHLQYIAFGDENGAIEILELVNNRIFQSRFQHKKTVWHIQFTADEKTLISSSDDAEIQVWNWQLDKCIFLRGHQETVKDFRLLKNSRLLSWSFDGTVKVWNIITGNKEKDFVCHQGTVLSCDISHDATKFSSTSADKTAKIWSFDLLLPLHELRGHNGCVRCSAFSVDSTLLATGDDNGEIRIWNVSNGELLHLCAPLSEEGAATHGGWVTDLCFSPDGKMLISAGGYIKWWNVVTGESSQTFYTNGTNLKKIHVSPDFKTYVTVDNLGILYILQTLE
Put plainly: split reporter (BiFC, NanoBiT); cell-based split luciferase: HEK293 co-transfected with N-luc Apaf-1 and C-luc Apaf-1 (N/P 12), apoptosis induced with 0.5 μM doxorubicin, lysates (CCLR) prepared 12, 24, 28 and 36 h after induction; luciferase activity against uninduced cells. The settings on record: remark: other sources report otherwise.

Test [2] has as its target T1, C-luc Apaf-1 (full length Apaf-1 fused …). Kind of test: split reporter (BiFC, NanoBiT); cell-free split luciferase: extracts of N-luc Apaf-1 and C-luc Apaf-1 expressing cells mixed, cytochrome c (1.6 μM) and dATP (1.0 mM) added, room temperature; against the mixture without cytochrome c and dATP. The settings on record: remark: other sources report otherwise.

B1: N-luc Apaf-1 (full length Apaf-1 fused through its N-terminus to the N-terminal fragment, amino acids 1-416, of P. pyralis luciferase), O14727 1-1248 (natural protein)
chain: MDAKARNCLLQHREALEKDIKTSYIMDHMISDGFLTISEEEKVRNEPTQQQRAAMLIKMILKKDNDSYVSFYNALLHEGYKDLAALLHDGIPVVSSSSGKDSVSGITSYVRTVLCEGGVPQRPVVFVTRKKLVNAIQQKLSKLKGEPGWVTIHGMAGCGKSVLAAEAVRDHSLLEGCFPGGVHWVSVGKQDKSGLLMKLQNLCTRLDQDESFSQRLPLNIEEAKDRLRILMLRKHPRSLLILDDVWDSWVLKAFDSQCQILLTTRDKSVTDSVMGPKYVVPVESSLGKEKGLEILSLFVNMKKADLPEQAHSIIKECKGSPLVVSLIGALLRDFPNRWEYYLKQLQNKQFKRIRKSSSYDYEALDEAMSISVEMLREDIKDYYTDLSILQKDVKVPTKVLCILWDMETEEVEDILQEFVNKSLLFCDRNGKSFRYYLHDLQVDFLTEKNCSQLQDLHKKIITQFQRYHQPHTLSPDQEDCMYWYNFLAYHMASAKMHKELCALMFSLDWIKAKTELVGPAHLIHEFVEYRHILDEKDCAVSENFQEFLSLNGHLLGRQPFPNIVQLGLCEPETSEVYQQAKLQAKQEVDNGMLYLEWINKKNITNLSRLVVRPHTDAVYHACFSEDGQRIASCGADKTLQVFKAETGEKLLEIKAHEDEVLCCAFSTDDRFIATCSVDKKVKIWNSMTGELVHTYDEHSEQVNCCHFTNSSHHLLLATGSSDCFLKLWDLNQKECRNTMFGHTNSVNHCRFSPDDKLLASCSADGTLKLWDATSANERKSINVKQFFLNLEDPQEDMEVIVKCCSWSADGARIMVAAKNKIFLFDIHTSGLLGEIHTGHHSTIQYCDFSPQNHLAVVALSQYCVELWNTDSRSKVADCRGHLSWVHGVMFSPDGSSFLTSSDDQTIRLWETKKVCKNSAVMLKQEVDVVFQENEVMVLAVDHIRRLQLINGRTGQIDYLTEAQVSCCCLSPHLQYIAFGDENGAIEILELVNNRIFQSRFQHKKTVWHIQFTADEKTLISSSDDAEIQVWNWQLDKCIFLRGHQETVKDFRLLKNSRLLSWSFDGTVKVWNIITGNKEKDFVCHQGTVLSCDISHDATKFSSTSADKTAKIWSFDLLLPLHELRGHNGCVRCSAFSVDSTLLATGDDNGEIRIWNVSNGELLHLCAPLSEEGAATHGGWVTDLCFSPDGKMLISAGGYIKWWNVVTGESSQTFYTNGTNLKKIHVSPDFKTYVTVDNLGILYILQTLE
As to B1, in test [1], the fold change in luciferase activity against uninduced cells, 12 h after apoptosis induction was 10 fold; the fold change in luciferase activity against uninduced cells, 24 h after apoptosis induction was 130 fold; the fold change in luciferase activity against uninduced cells, 28 h after apoptosis induction stood at 280 fold; the fold change in luciferase activity against uninduced cells, 36 h after apoptosis induction stood at 40 fold. Besides, the fold increase in reconstituted luciferase activity with dATP/cytochrome c against the mixture without them in test [2] is 5 fold.
